Experiments:
bovine fibrinogen = target: T1, bovine fibrinogen (bovine, UniProt P02672 20-615; P02676 1-468; P12799 25-444); assay: solid phase adherence assay, 1 µg Fg per well, absorbance 590 nm
T1 construct: The three chains are general knowledge about fibrinogen; also called bovine Fg
T1 sequence 1: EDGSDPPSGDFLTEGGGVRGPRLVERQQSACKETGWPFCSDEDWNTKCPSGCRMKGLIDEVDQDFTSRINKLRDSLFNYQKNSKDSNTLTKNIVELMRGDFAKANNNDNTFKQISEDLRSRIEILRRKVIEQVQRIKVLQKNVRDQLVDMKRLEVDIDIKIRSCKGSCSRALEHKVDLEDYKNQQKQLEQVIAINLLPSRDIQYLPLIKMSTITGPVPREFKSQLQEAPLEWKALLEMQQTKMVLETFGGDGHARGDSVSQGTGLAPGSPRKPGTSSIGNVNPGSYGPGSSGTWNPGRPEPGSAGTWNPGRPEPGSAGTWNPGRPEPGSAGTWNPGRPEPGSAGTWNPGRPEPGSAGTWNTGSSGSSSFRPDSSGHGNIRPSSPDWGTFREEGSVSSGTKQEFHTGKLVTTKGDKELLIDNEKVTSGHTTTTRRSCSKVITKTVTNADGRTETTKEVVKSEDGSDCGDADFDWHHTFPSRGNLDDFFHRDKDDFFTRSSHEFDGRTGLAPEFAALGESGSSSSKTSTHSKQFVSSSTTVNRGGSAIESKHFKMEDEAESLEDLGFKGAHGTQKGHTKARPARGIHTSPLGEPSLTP
T1 sequence 2: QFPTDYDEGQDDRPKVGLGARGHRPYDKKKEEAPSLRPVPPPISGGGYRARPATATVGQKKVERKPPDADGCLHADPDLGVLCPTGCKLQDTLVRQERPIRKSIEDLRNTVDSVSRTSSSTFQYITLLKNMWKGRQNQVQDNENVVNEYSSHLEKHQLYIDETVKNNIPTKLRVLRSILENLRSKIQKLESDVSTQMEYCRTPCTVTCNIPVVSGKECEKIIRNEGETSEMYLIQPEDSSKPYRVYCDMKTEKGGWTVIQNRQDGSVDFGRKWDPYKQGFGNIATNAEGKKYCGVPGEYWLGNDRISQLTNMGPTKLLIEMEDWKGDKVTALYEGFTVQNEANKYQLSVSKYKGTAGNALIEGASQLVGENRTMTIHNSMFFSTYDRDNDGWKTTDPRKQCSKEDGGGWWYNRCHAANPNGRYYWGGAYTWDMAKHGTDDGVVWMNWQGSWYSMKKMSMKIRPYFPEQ
T1 sequence 3: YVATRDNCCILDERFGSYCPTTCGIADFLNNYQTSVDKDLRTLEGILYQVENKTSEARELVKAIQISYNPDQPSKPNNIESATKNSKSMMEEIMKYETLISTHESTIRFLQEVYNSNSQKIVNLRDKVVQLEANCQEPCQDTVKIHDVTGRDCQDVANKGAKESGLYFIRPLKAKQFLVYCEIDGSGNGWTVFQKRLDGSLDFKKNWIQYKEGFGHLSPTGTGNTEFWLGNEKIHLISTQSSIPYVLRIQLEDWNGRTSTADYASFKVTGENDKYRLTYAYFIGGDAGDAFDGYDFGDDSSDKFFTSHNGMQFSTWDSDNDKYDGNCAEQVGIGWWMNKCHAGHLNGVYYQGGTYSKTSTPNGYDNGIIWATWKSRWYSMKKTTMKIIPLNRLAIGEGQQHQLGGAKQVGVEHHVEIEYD

human fibrinogen = target: T2, human fibrinogen (human, UniProt P02671 20-629; P02675 31-491; P02679 27-437); assay: as above
T2 construct: The three chains are general knowledge about fibrinogen; also called human Fg
T2 sequence 1: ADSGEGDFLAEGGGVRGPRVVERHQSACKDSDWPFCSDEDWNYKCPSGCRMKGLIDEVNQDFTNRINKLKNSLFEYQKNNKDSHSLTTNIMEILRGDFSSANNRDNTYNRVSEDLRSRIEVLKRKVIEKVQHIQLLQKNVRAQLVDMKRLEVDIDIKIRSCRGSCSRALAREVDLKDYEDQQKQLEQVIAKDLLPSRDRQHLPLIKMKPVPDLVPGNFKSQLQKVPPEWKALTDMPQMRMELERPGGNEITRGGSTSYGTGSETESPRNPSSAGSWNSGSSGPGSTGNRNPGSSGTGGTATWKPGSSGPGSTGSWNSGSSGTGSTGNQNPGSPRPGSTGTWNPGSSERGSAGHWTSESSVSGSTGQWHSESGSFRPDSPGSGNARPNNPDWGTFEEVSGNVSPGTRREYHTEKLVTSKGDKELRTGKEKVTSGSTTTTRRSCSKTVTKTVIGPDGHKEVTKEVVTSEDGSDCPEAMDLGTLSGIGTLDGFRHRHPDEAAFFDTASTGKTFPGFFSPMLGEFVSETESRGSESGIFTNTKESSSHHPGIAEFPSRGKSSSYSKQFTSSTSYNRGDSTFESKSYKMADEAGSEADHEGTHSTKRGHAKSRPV
T2 sequence 2: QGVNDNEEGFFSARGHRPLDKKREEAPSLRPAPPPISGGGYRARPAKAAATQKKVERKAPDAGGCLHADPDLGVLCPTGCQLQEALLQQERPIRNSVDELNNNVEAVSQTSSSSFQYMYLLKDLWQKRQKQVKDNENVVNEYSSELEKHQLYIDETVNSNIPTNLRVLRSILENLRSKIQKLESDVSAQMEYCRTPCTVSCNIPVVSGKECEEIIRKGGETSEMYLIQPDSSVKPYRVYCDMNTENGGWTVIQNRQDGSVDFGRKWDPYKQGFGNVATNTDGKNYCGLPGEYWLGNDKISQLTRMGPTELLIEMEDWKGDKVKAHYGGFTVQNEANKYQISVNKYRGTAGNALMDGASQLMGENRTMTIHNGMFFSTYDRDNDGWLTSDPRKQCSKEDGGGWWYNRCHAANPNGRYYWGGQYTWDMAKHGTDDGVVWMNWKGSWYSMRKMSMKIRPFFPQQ
T2 sequence 3: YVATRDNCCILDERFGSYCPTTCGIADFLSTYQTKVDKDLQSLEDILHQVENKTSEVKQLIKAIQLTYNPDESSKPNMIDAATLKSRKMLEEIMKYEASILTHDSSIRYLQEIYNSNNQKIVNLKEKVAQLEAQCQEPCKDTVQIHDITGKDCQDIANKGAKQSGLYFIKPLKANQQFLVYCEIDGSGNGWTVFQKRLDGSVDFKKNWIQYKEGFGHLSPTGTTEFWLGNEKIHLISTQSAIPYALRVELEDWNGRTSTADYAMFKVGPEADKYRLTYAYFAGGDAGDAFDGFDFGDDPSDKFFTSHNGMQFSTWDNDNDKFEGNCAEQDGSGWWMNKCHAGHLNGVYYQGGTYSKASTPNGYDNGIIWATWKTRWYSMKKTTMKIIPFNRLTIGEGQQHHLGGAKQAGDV

B1: SpsD of S. pseudintermedius ED99, full-length, expressed on L. lactis MG1363 (pOri23) (other)
chain: SEVSATTQEHNVETEQTKTEGELTTEVAQQAVSESAPIAENMQKTTSVASENAKEVTASDSTQEVTKTEAKDTATMKDSEIAQPVSEVNKPVTQTAAPVAEPSTANKQTSPRQVQELTAPMDTKVINVENGTDVTSKVKVEKSSITGHQNKDKTYHQSNTVNPHKAERVTLNYDWSFENGIKAGDYFDFQLSDNVDTNGISTIKKVPHIMDSQNSEQIIAYGEINENNRVRYRFMDYVNQKENLKGKLSLNLFIKPDKVQDEGKITVTSQLGKEMTSQEFDIKYIDGVKSPSGITLNGRLDELSKADQSFTHYSIFKPKHNNLTNVTLRGTVSNNAQQNEKNGQVNVYEYIGQGELPQSAYANVNDTKQFNDITKSMKSIKNNSNGYEITFDMNKDNHPYIIVYQGHFNNNAKDFDFSTNATGYQNLNQSEYSYYWPYNYSFNLTWDNGVAFYSNNASGEGNDKPVPPTYGYSPTVNTIQDTHADYPVMTFQQPGTLEETEDSMPITTLTESGEDRGENTSPIIETTEDSQPVEFEEETNHGIQDVTLHADAVDFEEETNHGEQDTVHHSDVVEYDEDTTTGMLTGAISDHTTEEGTMEYTTDGLLIEFDDEMNPNVSGQYDDITTDTIEESSHIDTFTELESEFGQHDGIVTFEEDTIVEKPKTEKGNRVPLVIDLSTPKHNHQFNIQPTDPNIDTSATYRIGNFVWRDEDHNGVQNDGEHGLEGVLVTLKTADGVVLNTTTSDANGHYQFTNVQKGKYIVEFTTPEGYEATSKHTTANTEKDSDGLIANIDVTQDDMSIDAGFFPLENWNPQPEPKNPDDREKPAPEQPDVPQPEPKNPDDREKPAPEQPDVPQPEPKNPDDREKPAPEQPDVPQPEPKNPDDKEKPAPEQPDVPQPEPKNPDDKEKPAPEQPDAPQPKPMLPGEKVKPKPTHPGEAMQTTPQDKSTSQTDEALPKTGESSSQSSALIFGGLLSLLGLGLLRRSSKQNRSSMK
notes: also called L. lactis expressing SpsD; putative MSCRAMM SpsD
binding result (bovine fibrinogen): binds | binding result (human fibrinogen): binds

Source: patent US20180237480A1 (UNIVERSITY OF EDINBURGH, published 2018)
